According to article PMC10296094 (Cancers, 2023):
Where no end group is shown, it is not given here.

Target: T1, His6-tagged human centrin1 (human, UniProt Q12798 1-172)
T1 sequence (looked up): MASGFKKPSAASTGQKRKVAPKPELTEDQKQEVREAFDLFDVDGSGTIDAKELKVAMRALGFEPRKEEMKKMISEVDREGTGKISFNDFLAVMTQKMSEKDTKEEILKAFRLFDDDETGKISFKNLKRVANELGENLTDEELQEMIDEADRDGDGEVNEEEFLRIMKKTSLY
Experiment: fluorescence polarisation; fluorescence anisotropy; 2-fold dilution series of centrin1, 100 nM Sfi1 peptide; 10 mM HEPES pH 7.4, 100 mM CaCl2, 0.005% v/v Tween 20; 45 min at RT
Details: both partners purified

- Kd: 30 ± 12 nM
B1: fluorescein-labelled Sfi1 peptide (peptide)
peptide: REVAARESQHNRQLLRGALRRWK
modifications: not fully specified (residue 23)
notes: Sfi1 (mitotic spindle regulator), human, residues 670-692; also called F-Sfi1
